Results: the Immune Epitope Database (IEDB)

Columns and labels:
HLA-C*05:01 = assay: IEDB peptide-MHC binding, purified MHC/direct/fluorescence; filed as Kd, often an IC50 or EC50 that approximates it; ≥ and ≤ were set here for values at or beyond the usual limits of such assays
HLA-A*02:03 [1] = assay: IEDB peptide-MHC binding, purified MHC/competitive/radioactivity; filed as Kd, often an IC50 or EC50 that approximates it; ≥ and ≤ were set here for values at or beyond the usual limits of such assays
HLA-A*02:06 = assay: as above
HLA-A*02:02 = assay: as above; settings: source organism: Vaccinia virus Copenhagen
HLA-A*02:01 [2] = assay: IEDB peptide-MHC binding, purified MHC/competitive/fluorescence; filed as Kd, often an IC50 or EC50 that approximates it; ≥ and ≤ were set here for values at or beyond the usual limits of such assays
HLA-A*02:17 = assay: IEDB peptide-MHC binding, purified MHC/competitive/radioactivity; filed as Kd, often an IC50 or EC50 that approximates it; ≥ and ≤ were set here for values at or beyond the usual limits of such assays
HLA-A*02:01 [3] = assay: as above
HLA-B*08:01 [4] = assay: as above; settings: source organism: Dengue virus 1 Brazil/97-11/1997
HLA-B*57:01 [5] = assay: IEDB peptide-MHC binding, purified MHC/competitive/fluorescence; filed as Kd, often an IC50 or EC50 that approximates it; ≥ and ≤ were set here for values at or beyond the usual limits of such assays
HLA-A*02:12 = assay: as above
HLA-B*27:03 = assay: as above
HLA-B*15:01 [6] = assay: as above
HLA-B*15:17 [7] = assay: as above; settings: source organism: Influenza A virus (A/swine/Italy/1513-1/1998(H1N1))
HLA-A*02:03 [8] = assay: as above; settings: source organism: Influenza A virus (A/swine/Italy/1513-1/1998(H1N1))
HLA-A*24:03 = assay: as above
HLA-B*51:01 = assay: as above
HLA-A*02:19 = assay: as above
HLA-A*68:02 [9] = assay: as above; settings: source organism: Influenza A virus (A/swine/Italy/1513-1/1998(H1N1))
HLA-B*46:01 [10] = assay: as above
HLA-A*69:01 [11] = assay: as above; settings: source organism: Influenza A virus (A/swine/Italy/1513-1/1998(H1N1))
HLA-B*18:01 [12] = assay: as above
HLA-B*39:01 = assay: as above
HLA-A*31:01 [13] = assay: as above; settings: source organism: Influenza A virus (A/swine/Italy/1513-1/1998(H1N1))
HLA-A*26:01 [14] = assay: as above
HLA-B*57:01 [15] = assay: IEDB peptide-MHC binding, purified MHC/direct/fluorescence; filed as Kd, often an IC50 or EC50 that approximates it; ≥ and ≤ were set here for values at or beyond the usual limits of such assays; settings: source organism: Marburg virus - Musoke, Kenya, 1980
HLA-B*40:01 = assay: as above; settings: source organism: Marburg virus - Musoke, Kenya, 1980
HLA-B*27:05 = assay: as above; settings: source organism: Marburg virus - Musoke, Kenya, 1980
HLA-A*11:01 = assay: as above; settings: source organism: Marburg virus - Musoke, Kenya, 1980
HLA-B*15:01 [16] = assay: as above; settings: source organism: Marburg virus - Musoke, Kenya, 1980
HLA-A*03:01 [17] = assay: as above; settings: source organism: Marburg virus - Musoke, Kenya, 1980
HLA-B*15:17 [18] = assay: as above; settings: source organism: Marburg virus - Musoke, Kenya, 1980
HLA-B*48:01 = assay: as above; settings: source organism: Marburg virus - Musoke, Kenya, 1980
HLA-B*08:01 [19] = assay: as above; settings: source organism: Ravn virus - Ravn, Kenya, 1987
HLA-A*68:02 [20] = assay: as above; settings: source organism: Marburg virus - Musoke, Kenya, 1980
HLA-B*46:01 [21] = assay: as above; settings: source organism: Marburg virus - Musoke, Kenya, 1980
HLA-B*08:03 = assay: as above; settings: source organism: Ravn virus - Ravn, Kenya, 1987
HLA-A*02:01 [22] = assay: as above; settings: source organism: Marburg virus - Musoke, Kenya, 1980
HLA-B*07:02 = assay: as above; settings: source organism: Marburg virus - Musoke, Kenya, 1980
HLA-B*58:01 = assay: as above; settings: source organism: Marburg virus - Musoke, Kenya, 1980
HLA-A*26:02 = assay: as above; settings: source organism: Ravn virus - Ravn, Kenya, 1987
HLA-A*01:01 = assay: as above; settings: source organism: Marburg virus - Musoke, Kenya, 1980
HLA-A*69:01 [23] = assay: as above; settings: source organism: Marburg virus - Musoke, Kenya, 1980
HLA-B*18:01 [24] = assay: as above; settings: source organism: Marburg virus - Musoke, Kenya, 1980
HLA-A*31:01 [25] = assay: as above; settings: source organism: Marburg virus - Musoke, Kenya, 1980
HLA-A*26:01 [26] = assay: as above; settings: source organism: Ravn virus - Ravn, Kenya, 1987
HLA-A*03:01 [27] = assay: IEDB peptide-MHC binding, purified MHC/competitive/fluorescence; filed as Kd, often an IC50 or EC50 that approximates it; ≥ and ≤ were set here for values at or beyond the usual limits of such assays; settings: source organism: Vibrio parahaemolyticus K5030
HLA-A*29:02 = assay: as above; settings: source organism: Vibrio parahaemolyticus K5030
HLA-A*02:11 = assay: as above; settings: source organism: Vibrio parahaemolyticus K5030
[28] = source organism: Vaccinia virus Copenhagen
[29] = source organism: Dengue virus 4 Philippines/H241/1956
[30] = source organism: Dengue virus 1 Singapore/S275/1990
[31] = source organism: Influenza A virus (A/swine/Italy/1513-1/1998(H1N1))
[32] = source organism: Vibrio parahaemolyticus K5030

For FPSVFINPI, the Kd (HLA-C*05:01; [28]) was no less than 20 µM.
Sequence FVDTMSIYI has a Kd (HLA-C*05:01; source organism: Variola virus) of 0.002 µM, a Kd (HLA-A*02:03 [1]; [28]) of 0.37 µM and a Kd (HLA-A*02:06; [28]) of 0.0161 µM. It also gave a Kd (HLA-A*02:02) of 0.0207 µM and a Kd (HLA-A*02:01 [2]; source organism: Variola virus) of 0.0004 µM.
With GLYPLAIPV the Kd (HLA-A*02:03 [1]; [29]) was 0.00042 µM, the Kd (HLA-A*02:06; [29]) was 0.125 µM and the Kd (HLA-A*02:17; [29]) was 0.0538 µM. For the same sequence, the Kd (HLA-A*02:01 [3]; [29]) was 0.00106 µM.
ILLMLVTPSM gave a Kd (HLA-B*08:01 [4]) of 0.16 µM, a Kd (HLA-A*02:17; [30]) of 1.11 µM and a Kd (HLA-A*02:01 [3]; [30]) of 0.102 µM.
With MMWEINGPK the Kd (HLA-B*57:01 [5]; [31]) was no less than 20 µM, the Kd (HLA-A*02:12; [31]) was no less than 20 µM and the Kd (HLA-B*27:03; [31]) was no less than 20 µM. It also gave a Kd (HLA-B*15:01 [6]; [31]) of no less than 20 µM, a Kd (HLA-B*15:17 [7]) of no less than 20 µM and a Kd (HLA-A*02:03 [8]) of no less than 20 µM. It also gave a Kd (HLA-A*24:03; [31]) of no less than 20 µM, a Kd (HLA-B*51:01; [31]) of no less than 20 µM and a Kd (HLA-A*02:19; [31]) of no less than 20 µM. It also gave a Kd (HLA-A*68:02 [9]) of no less than 20 µM, a Kd (HLA-B*46:01 [10]; [31]) of no less than 20 µM and a Kd (HLA-A*69:01 [11]) of no less than 20 µM. For the same sequence, the Kd (HLA-B*18:01 [12]; [31]) was no less than 20 µM, the Kd (HLA-B*39:01; [31]) was no less than 20 µM and the Kd (HLA-A*31:01 [13]) was 0.0751 µM. It also gave a Kd (HLA-A*26:01 [14]; [31]) of no less than 20 µM.
In the case of QVGIFLICK, the Kd (HLA-B*57:01 [15]) is reported as no less than 20 µM, the Kd (HLA-B*40:01) is reported as no less than 20 µM and the Kd (HLA-B*27:05) is reported as no less than 20 µM. The Kd (HLA-A*11:01) was 2.8 µM, the Kd (HLA-B*15:01 [16]) was no less than 20 µM and the Kd (HLA-A*03:01 [17]) was no less than 20 µM. For the same sequence, the Kd (HLA-B*15:17 [18]) was no less than 20 µM, the Kd (HLA-B*48:01) was no less than 20 µM and the Kd (HLA-B*08:01 [19]) was no less than 20 µM. The Kd (HLA-A*68:02 [20]) was no less than 20 µM, the Kd (HLA-B*46:01 [21]) was no less than 20 µM and the Kd (HLA-B*08:03) was no less than 20 µM. For the same sequence, the Kd (HLA-A*02:01 [22]) was no less than 20 µM, the Kd (HLA-B*07:02) was no less than 20 µM and the Kd (HLA-B*58:01) was no less than 20 µM. It also gave a Kd (HLA-A*26:02) of no less than 20 µM, a Kd (HLA-A*01:01) of no less than 20 µM and a Kd (HLA-A*69:01 [23]) of no less than 20 µM. For the same sequence, the Kd (HLA-B*18:01 [24]) was no less than 20 µM, the Kd (HLA-A*31:01 [25]) was no less than 20 µM and the Kd (HLA-A*26:01 [26]) was no less than 20 µM.
WLGDVWQEK showed a Kd (HLA-B*57:01 [5]; [32]) of no less than 20 µM, a Kd (HLA-A*02:12; [32]) of no less than 20 µM and a Kd (HLA-B*27:03; [32]) of no less than 20 µM. For the same sequence, the Kd (HLA-B*15:01 [6]; [32]) was no less than 20 µM, the Kd (HLA-A*03:01 [27]) was no less than 20 µM and the Kd (HLA-A*24:03; [32]) was no less than 20 µM. For the same sequence, the Kd (HLA-B*51:01; [32]) was no less than 20 µM, the Kd (HLA-A*02:19; [32]) was no less than 20 µM and the Kd (HLA-B*46:01 [10]; [32]) was no less than 20 µM. The Kd (HLA-A*29:02) was no less than 20 µM, the Kd (HLA-A*02:01 [2]; [32]) was no less than 20 µM and the Kd (HLA-B*18:01 [12]; [32]) was no less than 20 µM. For the same sequence, the Kd (HLA-B*39:01; [32]) was no less than 20 µM, the Kd (HLA-A*02:11) was 0.0251 µM and the Kd (HLA-A*26:01 [14]; [32]) was no less than 20 µM.
